Laboratory results published in patent US10689452 (UNIVERSIT T STUTTGART, dated 2020).

What was measured:
[1] = biological target: T1, human TNFR1-Fc fusion protein (human, UniProt P19438 29-211); assay: QCM, human TNFR1-Fc, moderate receptor density (86 Hz), biphasic fit, kon1 (low-affinity part)
T1 construct: range 29-211; Made in stably transfected HEK293 cells; coated on ELISA plates or immobilised on QCM chips; also called huTNFR1-Fc; human TNFR-Fc; not shown: Fc part from vector pSecTagL1-Fc
T1 sequence (looked up): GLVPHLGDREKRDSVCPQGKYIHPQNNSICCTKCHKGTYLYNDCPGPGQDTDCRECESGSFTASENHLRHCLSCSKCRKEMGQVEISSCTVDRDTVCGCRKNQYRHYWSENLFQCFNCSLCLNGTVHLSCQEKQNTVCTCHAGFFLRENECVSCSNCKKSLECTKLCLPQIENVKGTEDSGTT
Experimental: (§1) Real-time binding dynamics in protein-protein interactions were determined by quartz crystal microbalance measurements (A-100 C-Fast or Cell-200 C-Fast, Attana, Stockholm, Sweden). One of the binding partners (ligand, e.g. TNFR1-Fc) was chemically immobilized on a carboxyl sensor chip according to the manufacturer's protocol at different densities (nearly 200 Hz in the case of saturating conditions to confirm previously published results and 50-100 Hz, in particular at about 50 Hz, to establish conditions of lower receptor density, better resembling the situation on the cellular surface). Binding experiments were performed with samples (analyte) diluted in PBST (PBS, 0.1% Tween 20) at pH 7.4 with a flow rate of 25 µl/min at 37° C. The chip was regenerated with 25 µl 5 mM NaOH or 20 mM glycine, pH 2.0. Every third measurement, an injection of running buffer was measured which was subtracted from the binding curve. Data were collected using the software provided by Attana for the particular device and analyzed by Attaché Office Evaluation software (Attana, Stockholm, Sweden) and TraceDrawe (ridgview instruments, Vange, Sweden).

[2] = biological target: T1, human TNFR1-Fc fusion protein; assay: QCM, human TNFR1-Fc immobilised, high receptor density (195 Hz)
Experimental: FIG. 1. […] Applied were triplicates of five concentrations between 3.9 nM and 62.5 nM.
as §1

[3] = biological target: T1, human TNFR1-Fc fusion protein; assay: QCM, human TNFR1-Fc, moderate receptor density (86 Hz), biphasic fit, KD1 (low-affinity part)
Experimental: as §1

[4] = biological target: T1, human TNFR1-Fc fusion protein; assay: ELISA on coated huTNFR1-Fc, antibody titrated, signal as Binding [%]
Experimental: FIG. 13. […] Increasing concentrations were tested for their binding to huTNFR1-Fc in ELISA (n=3, mean±SD).
(§2) Microtiter plates were coated with 100 µl of the indicated protein (1 µg/ml in PBS, see Table 3.3) and incubated at 4° C. over night. The residual binding sites were blocked with 2% MPBS (skim milk in PBS, 200 µl per well) at room temperature for 2 hours and subsequently washed twice with PBS. 100 µl of the samples diluted in 2% MPBS were incubated at room temperature for 1 hour prior to the last incubation step with 100 µl of the HRP conjugated detection antibodies in 2% MPBS. In the case of competition experiments, both analyzed protein samples were prepared individually (either titrated or diluted to a single concentration) and mixed before they were applied to the plate. Bound protein was detected with 100 µl TMB substrate solution, the HRP-reaction was stopped by the addition of 50 µl 1 M H2SO4 and the absorption at the wavelength of 450 nm was measured using the Infinite microtiter plate reader (TECAN, Maennedorf, Switzerland). Between each incubation step and in advance of the detection, the plates were washed three times with PBST and twice with PBS.

[5] = biological target: T2, human TNFR2-Fc fusion protein (human, UniProt P20333 23-257); assay: ELISA on coated receptor-Fc fusion proteins, one antibody concentration (not given on the sheet)
T2 construct: whole entry named; also called huTNFR2
T2 sequence (looked up): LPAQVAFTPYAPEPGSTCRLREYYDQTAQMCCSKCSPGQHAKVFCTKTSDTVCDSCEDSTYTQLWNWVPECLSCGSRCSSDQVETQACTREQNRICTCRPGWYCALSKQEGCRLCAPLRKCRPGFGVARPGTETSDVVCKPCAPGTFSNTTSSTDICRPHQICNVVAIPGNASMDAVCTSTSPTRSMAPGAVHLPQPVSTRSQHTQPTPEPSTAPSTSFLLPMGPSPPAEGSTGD
Experimental: FIG. 12. Species selectivity of scFv13.7 derivatives. […] Presented are mean and SD of two individual experiments.
as §2

[6] = biological target: T1, human TNFR1-Fc fusion protein; assay: QCM, human TNFR1-Fc, moderate receptor density (86 Hz), biphasic fit, koff1 (low-affinity part)
Experimental: as §1

[7] = biological target: T3, human TNFR1 on cells (HT1080, HeLa, Kym-1) (human, UniProt P19438 30-455); assay: cell-based or functional assay
T3 sequence (looked up): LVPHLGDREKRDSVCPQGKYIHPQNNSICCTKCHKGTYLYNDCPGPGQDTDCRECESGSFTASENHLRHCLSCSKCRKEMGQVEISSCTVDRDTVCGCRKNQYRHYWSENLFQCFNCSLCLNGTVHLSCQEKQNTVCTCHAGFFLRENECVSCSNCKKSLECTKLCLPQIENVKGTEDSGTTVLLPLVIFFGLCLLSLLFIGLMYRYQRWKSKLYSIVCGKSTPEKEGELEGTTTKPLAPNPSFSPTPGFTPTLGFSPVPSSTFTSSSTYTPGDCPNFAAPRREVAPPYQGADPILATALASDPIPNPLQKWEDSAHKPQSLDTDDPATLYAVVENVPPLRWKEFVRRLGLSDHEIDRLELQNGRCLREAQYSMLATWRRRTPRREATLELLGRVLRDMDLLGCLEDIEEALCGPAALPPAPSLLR

[8] = biological target: T1, human TNFR1-Fc fusion protein; assay: ELISA, human TNFR1-Fc

- kon [1]: 282000 M⁻¹ s⁻¹
- Factor (KD high density chip, ATROSAB against H398) [2]: 1.5 fold
- Kd [2]: 0.35 nM
- Kd [3]: 78 nM
- EC50 (read off the curve) [4]: ~1 nM
- binding result [5]: no binding
- koff [6]: 0.0219 s⁻¹
- Factor, IC50 LT (ATROSAB against H398) [7]: 12 fold
- Factor, IC50 TNF (ATROSAB against H398) [7]: 10 fold
- IC50, LT [nM] (inhibition of IL-8 release from HT1080 cells induced by LTα) [7]: 7.6 nM
- IC50, TNF [nM] (inhibition of IL-8 release from HT1080 cells induced by 0.1 nM TNF) [7]: 42 nM
- fold weaker binding (higher EC50) compared with IgG13.7 [8]: 1.4 fold
B1: ATROSAB (antibody, IgG1, V domains shown)
VH: QVQLVQSGAEVKKPGSSVKVSCKASGYTFTDFYINWVRQAPGQGLEWIGEIYPYSGHAYYNEKFKARVTITADKSTSTAYMELSSLRSEDTAVYYCARWDFLDYWGQGTTVTVSS
VL: DIVMTQSPLSLPVTPGEPASISCRSSQSLLHSNGNTYLHWYLQKPGQSPQLLIYTVSNRFSGVPDRFSGSGSGTDFTLKISRVEAEDVGVYYCSQSTHVPYTFGGGTKVEIKR
notes: Humanized full-length IgG1 with a modified Fc region deficient in mediating effector functions (made according to WO2012035141); also called full length IgG ATROSAB
